Read-outs that look alike come from different tables or passages of the source.
B1: Bis-40E9-L2H3-Y101F.H (bispecific antibody)
heavy 1: not shown
heavy 2: EVQLVQSGAEVKKPGASVKVSCKASGYTFTSYVIHWVRQAPGQGLEWMGYFNPYNDGTKYNEEFKGRVTLTSDKSTSTAYMELRSLRSDDTAVYYCARGGVRRYFDVWGQGTTVTVSSASTKGPSVFPLAPSSKSTSGGTAALGCLVKDYFPEPVTVSWNSGALTSGVHTFPAVLQSSGLYSLSSVVTVPSSSLGTQTYICNVNHKPSNTKVDKKVEPKSCGGGGSGGGGSEVQLVQSGAEVKKPGSSVKVSCKASGYTFSSYVIHWVRQAPGQCLEWMGYINPYNDVIKYNEKFKGRVTLTSDKSTSTAYMELSSLRSEDTAVYYCARDSFYSYDGFAYWGQGTLVTVSSGGGGSGGGGSGGGGSGGGGSEIVLTQSPDFQSVTPKEKVTITCSASSSVSYMHWYQQKPDQSPKRLIYDTSKLASGVPSRFSGSGSGTDFTLTINSLEAEDAATYYCQQWSSNPPTFGCGTKVEIKGGGGSGGGGSDKTHTCPPCPAPEAAGGPSVFLFPPKPKDTLMISRTPEVTCVVVDVSHEDPEVKFNWYVDGVEVHNAKTKPREEQYNSTYRVVSVLTVLHQDWLNGKEYKCKVSNKALPAPIEKTISKAKGQPREPQVCTLPPSREEMTKNQVSLSCAVKGFYPSDIAVEWESNGQPENNYKTTPPVLDSDGSFFLVSKLTVDKSRWQQGNVFSCSVMHEALHNHYTQKSLSLSPGK
light: DIQMTQSPSSLSASVGDRVTITCRASQDIGSNLNWLQQKPGKAIKRLIYATFGLDSGVPSRFSGSRSGTDFTLTISSLQPEDFATYYCQQYASFPYTFGGGTKVEIKRTVAAPSVFIFPPSDEQLKSGTASVVCLLNNFYPREAKVQWKVDNALQSGNSQESVTEQDSKDSTYSLSSTLTLSKADYEKHKVYACEVTHQGLSSPVTKSFNRGEC
notes: Fab-scFv-Fab (2+1), LALA
B2: Bis-40E9-L2H3-Y54G.H (bispecific antibody)
heavy: EVQLVQSGAEVKKPGASVKVSCKASGYTFTSYVIHWVRQAPGQGLEWMGYFNPYNDGTKYNEEFKGRVTLTSDKSTSTAYMELRSLRSDDTAVYYCARGGVRRYFDVWGQGTTVTVSS
heavy (part 1 of 2): B2 heavy
heavy (part 2 of 2): GGGGSGGGGSEVQLVQSGAEVKKPGSSVKVSCKASGYTFSSYVIHWVRQAPGQCLEWMGYINPGNDVIKYNEKFKGRVTLTSDKSTSTAYMELSSLRSEDTAVYYCARDSYYSYDGFAYWGQGTLVTVSSGGGGSGGGGSGGGGSGGGGSEIVLTQSPDFQSVTPKEKVTITCSASSSVSYMHWYQQKPDQSPKRLIYDTSKLASGVPSRFSGSGSGTDFTLTINSLEAEDAATYYCQQWSSNPPTFGCGTKVEIKGGGGSGGGGS
light: DIQMTQSPSSLSASVGDRVTITCRASQDIGSNLNWLQQKPGKAIKRLIYATFGLDSGVPSRFSGSRSGTDFTLTISSLQPEDFATYYCQQYASFPYTFGGGTKVEIK
notes: Fab-scFv-Fab (2+1), LALA; not shown: CH1; CL; CH2-CH3 with L234A, L235A; heavy chain constant region with L234A, L235A
B3: RG6234 (bispecific antibody, human IgG1, kappa, L234A L235A)
heavy 1: EVQLVESGGGLVQPGRSLKLSCAASGFSFSNYGMAWVRQAATKGLEWVASISTGGGNTYYRDSVKGRFIVSRDNAKNTQYLQMDSLRSEDTATYYCTRHDRGGLYWGQGVMVTVSSASTKGPSVFPLAPSSKSTSGGTAALGCLVEDYFPEPVTVSWNSGALTSGVHTFPAVLQSSGLYSLSSVVTVPSSSLGTQTYICNVNHKPSNTKVDEKVEPKSCDKTHTCPPCPAPEAAGGPSVFLFPPKPKDTLMISRTPEVTCVVVDVSHEDPEVKFNWYVDGVEVHNAKTKPREEQYNSTYRVVSVLTVLHQDWLNGKEYKCKVSNKALGAPIEKTISKAKGQPREPQVCTLPPSRDELTKNQVSLSCAVKGFYPSDIAVEWESNGQPENNYKTTPPVLDSDGSFFLVSKLTVDKSRWQQGNVFSCSVMHEALHNHYTQKSLSLSPGK
heavy 2: not shown
light 1: DIVMTQAPLSVSVTPGESASISCRSSKSLLHSNGITYVYWYFQKPGKSPQVLIYRMSNLASGVPDRFSGSGSETDFTLKISRVEAEDVGIYHCGQLLENPYTFGAGTELELKRTVAAPSVFIFPPSDRKLKSGTASVVCLLNNFYPREAKVQWKVDNALQSGNSQESVTEQDSKDSTYSLSSTLTLSKADYEKHKVYACEVTHQGLSSPVTKSFNRGEC
light 2: EVQLLESGGGLVQPGGSLRLSCAASGFTFSTYAMNWVRQAPGKGLEWVSRIRSKYNNYATYYADSVKGRFTISRDDSKNTLYLQMNSLRAEDTAVYYCVRHGNFGNSYVSWFAYWGQGTLVTVSSRTVAAPSVFIFPPSDEQLKSGTASVVCLLNNFYPREAKVQWKVDNALQSGNSQESVTEQDSKDSTYSLSSTLTLSKADYEKHKVYACEVTHQGLSSPVTKSFNRGEC
notes: construct per WO2019154890A1; also called benchmark antibody RG6234 (Roche)
B4: JNJ-64407564 (bispecific antibody, V domains shown)
VH 1: QVQLVQSGAEVKKPGASVKVSCKASGYSFTGYTMNWVRQAPGQGLEWMGLINPYNSDTNYAQKLQGRVTMTTDTSTSTAYMELRSLRSDDTAVYYCARVALRVALDYWGQGTLVTVSS
VL 1: DIQMTQSPSSLSASVGDRVTITCKASQNVATHVGWYQQKPGKAPKRLIYSASYRYSGVPSRFSGSGSGTEFTLTISNLQPEDFATYYCQQYNRYPYTFGQGTKLEIK
VH 2: EVQLVESGGGLVQPGGSLRLSCAASGFTFNTYAMNWVRQAPGKGLEWVARIRSKYNNYATYYAASVKGRFTISRDDSKNSLYLQMNSLKTEDTAVYYCARHGNFGNSYVSWFAYWGQGTLVTVSS
VL 2: QTVVTQEPSLTVSPGGTVTLTCRSSTGAVTTSNYANWVQQKPGQAPRGLIGGTNKRAPGTPARFSGSLLGGKAALTLSGVQPEDEAEYYCALWYSNLWVFGGGTKLTVL
notes: construct per WO2018017786A2; also called benchmark antibody

Columns and labels:
[1] = molecular target: T1, GPRC5D (G-protein coupled receptor family C group 5 member D), human, on multiple myeloma cell lines (human, UniProt Q9NZD1 1-345); assay: cell-based or functional assay
[2] = molecular target: T1, GPRC5D (G-protein coupled receptor …); assay: cell-based or functional assay; remark: listed apart in the source
[3] = molecular target: T2, CD3 (Cluster of Differentiation 3 protein), human, on T cells / Jurkat cells (human, UniProt P07766 23-207; P04234 22-171; P09693 23-182); assay: FACS, Jurkat cells, antibody at 50 µg/ml
T2 construct: whole, on cells; part of the TCR-CD3 complex; also called human CD3
Experimental: (§1) The binding affinities of the generated humanized Fab-scFv-Fab bispecific antibodies were determined by FACS analysis. […] (a) Jurkat cells were washed by Staining Buffer (PBS+1% BSA) in round bottom 96-well plate. [0833] (b) Antibody dilutions and cells were added to each well, incubated at 4 degrees for 1 hour. [0834] (c) Cells were spined down at 300 g for 3 minutes, and the supernatants were discarded. [0835] (d) Cells were washed with Staining Buffer. […] (e) Step (d) was repeated and the cells were incubated for 0.5 hours at 4 degrees with secondary antibody in Staining Buffer. [0837] (f) After incubation, step (d)-(e) were repeated. […] (g) Staining Buffer was added and fluorescence signals were recorded by flow cytometry.

[4] = molecular target: T1, GPRC5D (G-protein coupled receptor …); assay: FACS, MM.1S cells
Experimental: as §1
(§2) The binding affinities of the generated humanized Fab-scFv-Fab bispecific antibodies to different multiple myeloma cell lines were evaluated by FACS analysis. The protocol for FACS analysis is identical to that described in Example 3.2, except that different cells were used in this example, i.e., multiple myeloma cell lines (MM.1S, […], L363 and RPMI 8226) were used in this example.

[5] = molecular target: T1, GPRC5D (G-protein coupled receptor …); assay: FACS, MOLP-8 cells
Experimental: as §1, §2

[6] = molecular target: T1, GPRC5D (G-protein coupled receptor …); assay: cell-based or functional assay; remark: listed apart in the source
[7] = molecular target: T1, GPRC5D (G-protein coupled receptor …); assay: cell-based or functional assay; remark: listed apart in the source
[8] = molecular target: T2, CD3 (Cluster of Differentiation 3 …); assay: FACS, CD3+ T cells isolated from normal donors
Experimental: To evaluate the binding affinity of the generated chimeric bispecific antibody to T cells, the isolated CD3⁺ T cells were stained by antibodies and the binding affinity was determined by FACS analysis. The protocol of FACS analysis is described as follows: [0785] (a) CD3⁺ T cells were isolated from normal donors. [0786] (b) The isolated CD3⁺ T cells were washed by Staining Buffer (PBS+1% BSA) in round bottom 96-well plate. […] (c) Antibody dilutions were added to each well and mixed with the CD3+ T cells, incubated at 4 degrees for 1 hour. […] (d) Cells were spined at 300 g for 3 minutes, then the supernatants were discarded. [0789] (e) Cells were washed with Staining Buffer. [0790] (f) Step (d) was repeated, and the cells were incubated with secondary antibody in Staining Buffer for 0.5 hours at 4 degrees. [0791] (g) After incubation, step (d)-(e) were repeated. [0792] (h) Cells were resuspended in Staining Buffer and fluorescence signals were recorded by flow cytometry.

T2 sequence (P07766 23-207, chain 1 of 3): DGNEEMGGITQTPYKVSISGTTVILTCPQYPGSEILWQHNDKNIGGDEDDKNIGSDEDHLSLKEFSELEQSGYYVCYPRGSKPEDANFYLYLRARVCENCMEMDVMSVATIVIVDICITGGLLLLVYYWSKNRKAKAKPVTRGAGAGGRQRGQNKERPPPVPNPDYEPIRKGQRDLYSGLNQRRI
T2 sequence (P04234 22-171, chain 2 of 3): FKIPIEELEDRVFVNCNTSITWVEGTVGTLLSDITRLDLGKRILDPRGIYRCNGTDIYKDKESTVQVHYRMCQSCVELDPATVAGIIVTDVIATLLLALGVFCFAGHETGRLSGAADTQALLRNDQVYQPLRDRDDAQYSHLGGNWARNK
T2 sequence (P09693 23-182, chain 3 of 3): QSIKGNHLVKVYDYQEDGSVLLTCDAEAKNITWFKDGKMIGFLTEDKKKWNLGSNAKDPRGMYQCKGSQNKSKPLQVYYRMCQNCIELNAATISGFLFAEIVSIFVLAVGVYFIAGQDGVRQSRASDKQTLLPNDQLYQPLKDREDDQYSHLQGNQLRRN
T1 sequence (Q9NZD1 whole entry): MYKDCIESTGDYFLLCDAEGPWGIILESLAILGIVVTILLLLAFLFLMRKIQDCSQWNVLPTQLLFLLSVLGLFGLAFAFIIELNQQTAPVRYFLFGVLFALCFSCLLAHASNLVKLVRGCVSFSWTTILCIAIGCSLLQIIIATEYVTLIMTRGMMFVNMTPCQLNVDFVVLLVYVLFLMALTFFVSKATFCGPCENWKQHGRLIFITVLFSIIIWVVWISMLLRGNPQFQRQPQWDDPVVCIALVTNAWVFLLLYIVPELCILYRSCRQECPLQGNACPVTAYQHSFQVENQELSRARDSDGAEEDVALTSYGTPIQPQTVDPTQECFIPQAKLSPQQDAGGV

Binder	EC50 (nM), luciferase assay, L363 [1] [nM]	EC50 (nM), luciferase assay, MM.1S [1] [nM]	Top (RLU), luciferase assay, L363 [1] [RLU]	Top (RLU), luciferase assay, MM.1S [1] [RLU]	Top (RLU), luciferase assay, MOLP-8 [1] [RLU]	IC50 (nM), T-Cell Dependent Cytotoxicity, MM.1S [2] [nM]	IC50 (nM), T-Cell Dependent Cytotoxicity, MOLP-8 [2] [nM]	IC50 (nM), T-Cell Dependent Cytotoxicity, RPMI8226 [2] [nM]	Top (%), T-Cell Dependent Cytotoxicity, MM.1S [2] [%]	Top (%), T-Cell Dependent Cytotoxicity, MOLP-8 [2] [%]	Top (%), T-Cell Dependent Cytotoxicity, RPMI8226 [2] [%]	MFI (50 µg/ml) [3] [MFI]	EC50 [4] [nM]	Top (MFI) [4] [MFI]	EC50 [5] [nM]	Top (MFI) [5] [MFI]	EC50 (nM), luciferase assay, MOLP-8 [1] [nM]	EC50 [8] [nM]	Top (MFI) [8] [MFI]	also measured
B1	0.155	0.0398	1600	5630	1470	0.00723	0.00499	0.0226	62.8	77.1	12.2	207	10.1	1150	0.466	876	–	–	–	–
B2	0.0525	0.0506	776	5840	1060	0.00726	0.00117	0.0453	75.5	68.7	10.4	137	8.93	1330	0.398	952	0.0455	–	–	–
B3	0.0532	0.0397	1260	3910	1060	0.019	0.00599	0.0899	77.2	53.4	8.1	836	–	–	–	–	0.021	274	2550	IC50 (nM), T-Cell Dependent Cytotoxicity, L363 [6]: 0.007 nM; IC50 (nM), T-Cell Dependent Cytotoxicity, MM.1S [6]: 0.006 nM; IC50 (nM), T-Cell Dependent Cytotoxicity, MOLP-8 [6]: 0.002 nM; IC50 (nM), T-Cell Dependent Cytotoxicity, RPMI8226 [6]: 0.031 nM; EC50 (nM), luciferase assay, RPMI8226 [1]: 0.0929 nM; Top (RLU), luciferase assay, RPMI8226 [1]: 616 RLU; EC50 (nM), luciferase assay, L363 [7]: 44 nM; EC50 (nM), luciferase assay, MM.1S [7]: 0.334 nM; EC50 (nM), luciferase assay, MOLP-8 [7]: 0.756 nM; EC50 (nM), luciferase assay, RPMI8226 [7]: 0.047 nM
B4	–	–	–	–	–	–	–	–	–	–	–	1030	–	–	–	–	–	11.4	534	–

Reference: US20260193348A1 (ANTENGENE BIOLOGICS, published 2026)
